# US20250361322A1 (ICONIC THERAPEUTICS, published 2025)
# T1: Macaca mulatta TF on RF/6A cells (Macaca mulatta (protein sequence stated …, UniProt P13726 33-294 (human entry)))
# T1 construct: Endogenous TF of the RF/6A cell line; also called TF-positive Macaca mulatta RF/6A cells; cynomolgus TF
# T1 chain: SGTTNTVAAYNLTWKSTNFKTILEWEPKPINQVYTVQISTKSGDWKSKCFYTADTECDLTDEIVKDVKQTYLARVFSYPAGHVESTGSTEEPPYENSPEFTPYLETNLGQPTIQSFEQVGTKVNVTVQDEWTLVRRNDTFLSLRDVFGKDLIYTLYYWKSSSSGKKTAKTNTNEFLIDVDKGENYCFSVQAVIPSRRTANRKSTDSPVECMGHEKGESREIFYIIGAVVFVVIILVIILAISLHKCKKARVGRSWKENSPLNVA
# Key:
# E. coli-derived TF = molecular target: T2, E. coli-derived TF (human (Example 17 does not restate the …, UniProt P13726 33-251)); assay: protein ELISA, plate coated with E. coli-derived TF-His, antibody titrated, HRP secondary, luminescence
# T2 construct: also called E. coli-derived TF-His; E. coli-derived TF protein
# Procedure: (§1) Plates coated with Expi293- or E. coli-derived TF-His were incubated with increasing concentrations of antibodies.
# [1] = molecular target: T1, Macaca mulatta TF on RF/6A cells; assay: flow cytometry, IgG1 titrated on TF-positive Macaca mulatta RF/6A cells, 4-parameter fit
# Procedure: After 2 washes, dead cells were labeled with TO-PRO-3 Iodide (ThermoFisher Scientific) and samples were analyzed on a CytoFLEX flow cytometer (Beckman Coulter, Brea, CA, USA) or Novocyte flow cytometer (ACEA Biosciences, San Diego, CA, USA). The median fluorescence intensities (MFIs) at each dilution were plotted and cell EC₅₀'s were derived using a 4-parameter binding model in Prism (GraphPad, La Jolla, CA, USA).
# Expi293-derived TF-His = molecular target: T3, Expi293-derived TF-His (human (Example 17 does not restate the …, UniProt P13726 33-251)); assay: protein ELISA, plate coated with Expi293-derived TF-His, antibody titrated, HRP secondary, luminescence
# T3 construct: Glycosylated TF ECD-His6 from Expi293 cells; also called Expi293-derived TF protein; TF ECD-His6
# Procedure: as §1
# Relipidated TF [2] = molecular target: T4, Relipidated TF (UniProt P13726 33-295, limits assumed); assay: cell-based or functional assay
# Relipidated TF [3] = molecular target: T4, Relipidated TF; assay: cell-based or functional assay; remark: listed apart in the source
# human Tissue Factor (TF) [4] = molecular target: T5, human Tissue Factor (TF) (human, UniProt P13726 33-295); assay: cell-based or functional assay
# human Tissue Factor (TF) [5] = molecular target: T5, human Tissue Factor (TF); assay: flow cytometry, MDA-MB-231 cells; competitor 20 nM FVII-Fc-Alexa488; antibody at 83 nM
# Procedure: (§2) After another 1 hr incubation on ice, cells were washed, stained with a viability dye, and analyzed by flow cytometry. The Alexa488 fluorescence data from viable cells was summarized using median fluorescence intensity.
# human Tissue Factor (TF) [6] = molecular target: T5, human Tissue Factor (TF); assay: cell-based or functional assay; remark: listed apart in the source
# human Tissue Factor (TF) [7] = molecular target: T5, human Tissue Factor (TF); assay: flow cytometry, MDA-MB-231 cells; competitor 20 nM FVII-Fc-Alexa488; antibody at 9.25 nM
# Procedure: as §2
# human Tissue Factor (TF) [8] = molecular target: T5, human Tissue Factor (TF); assay: flow cytometry, MDA-MB-231 cells; competitor 20 nM FVII-Fc-Alexa488; antibody at 28 nM
# Procedure: as §2
# human Tissue Factor (TF) [9] = molecular target: T5, human Tissue Factor (TF); assay: flow cytometry, A431 cells; antibody at 100 nM; competitor 20 nM 25A-Alexa488
# Procedure: as §2
# human Tissue Factor (TF) [10] = molecular target: T5, human Tissue Factor (TF); assay: flow cytometry, MDA-MB-231 cells; competitor 20 nM FVII-Fc-Alexa488; antibody at 250 nM
# Procedure: as §2
# human Tissue Factor (TF) [11] = molecular target: T5, human Tissue Factor (TF); assay: cell-based or functional assay; remark: listed apart in the source
# human Tissue Factor (TF) [12] = molecular target: T5, human Tissue Factor (TF); assay: flow cytometry, A431 cells; antibody at 100 nM; competitor 20 nM 43Ea-Alexa488
# Procedure: as §2
binder,measurement,setting,value
"54E (antibody, human IgG1, V domains shown, Human IgG1; also called antibody designated 54E) VH: QVQLVQSGAEVKKPGASVKVSCKASGYTFANYYMHWVRQAPGQGLEWMGIINPSGGITVYAQKFQGRVTMTRDTSTSTVYMELSSLRSEDTAVYYCARGGSKVAALAFDIWGQGTMVTVSS VL: DIQMTQSPSSLSASVGDRVTITCQASQDISNSLNWYQQKPGKAPKLLIYDASNLETGVPSRFSGSRSGTDFTFTISSLQPEDIATYYCQQYNFHPLTFGGGTKVEIK",EC50,E. coli-derived TF,380 pM
same,EC50,[1],1280 pM
same,EC50,Expi293-derived TF-His,960 pM
"39A (antibody, human IgG1, V domains shown, Human IgG1; also called antibody designated 39A) VH: QVQLVQSGAEVKKPGSSVKVSCKASGGTFSSNAIGWVRQAPGQGLEWMGSIIPIIGFANYAQKFQGRVTITADESTSTAYMELSSLRSEDTAVYYCARDSGYYYGASSFGMDVWGQGTTVTVSS VL: EIVMTQSPATLSVSPGERATLSCRASQSVSSNLAWYQQKPGQAPRLLIYGASTRATGIPARFSGSGSGTEFTLTISSLQSEDFAVYYCEQYNNLPLTFGGGTKVEIK",% Peak IIa at 10 nM Ab (TGA with 10 min antibody pre-incubation),Relipidated TF [2],11%
same,% Peak IIa at 50 nM Ab (TGA with 10 min antibody pre-incubation),Relipidated TF [2],8%
same,% Peak IIa at 100 nM Ab (TGA with 10 min antibody pre-incubation),Relipidated TF [2],6%
same,Lag Time at 10 nM Ab (TGA with 10 min antibody pre-incubation),Relipidated TF [2],20.9 min
same,Lag Time at 50 nM Ab (TGA with 10 min antibody pre-incubation),Relipidated TF [2],29 min
same,Lag Time at 100 nM Ab (TGA with 10 min antibody pre-incubation),Relipidated TF [2],32.1 min
same,Peak IIa at 10 nM Ab (TGA with 10 min antibody pre-incubation),Relipidated TF [2],30 nM
same,Peak IIa at 50 nM Ab (TGA with 10 min antibody pre-incubation),Relipidated TF [2],21 nM
same,Peak IIa at 100 nM Ab (TGA with 10 min antibody pre-incubation),Relipidated TF [2],17 nM
same,ttPeak at 10 nM Ab (TGA with 10 min antibody pre-incubation),Relipidated TF [2],30.8 min
same,ttPeak at 50 nM Ab (TGA with 10 min antibody pre-incubation),Relipidated TF [2],39.7 min
same,ttPeak at 100 nM Ab (TGA with 10 min antibody pre-incubation),Relipidated TF [2],43.2 min
same,EC50,E. coli-derived TF,340 pM
same,EC50,[1],270 pM
same,% ETP at 10 nM Ab (TGA without antibody pre-incubation),Relipidated TF [3],58%
same,% Peak IIa at 10 nM Ab (TGA without antibody pre-incubation),Relipidated TF [3],24%
same,% Peak IIa at 50 nM Ab (TGA without antibody pre-incubation),Relipidated TF [3],8%
same,% Peak IIa at 100 nM Ab (TGA without antibody pre-incubation),Relipidated TF [3],6%
same,ETP at 10 nM Ab (TGA without antibody pre-incubation),Relipidated TF [3],1330 nM·min
same,Lag Time at 10 nM Ab (TGA without antibody pre-incubation),Relipidated TF [3],12.4 min
same,Lag Time at 50 nM Ab (TGA without antibody pre-incubation),Relipidated TF [3],33.1 min
same,Lag Time at 100 nM Ab (TGA without antibody pre-incubation),Relipidated TF [3],38.1 min
same,Peak IIa at 10 nM Ab (TGA without antibody pre-incubation),Relipidated TF [3],84 nM
same,Peak IIa at 50 nM Ab (TGA without antibody pre-incubation),Relipidated TF [3],29 nM
same,Peak IIa at 100 nM Ab (TGA without antibody pre-incubation),Relipidated TF [3],22 nM
same,ttPeak at 10 nM Ab (TGA without antibody pre-incubation),Relipidated TF [3],20.7 min
same,ttPeak at 50 nM Ab (TGA without antibody pre-incubation),Relipidated TF [3],43.2 min
same,ttPeak at 100 nM Ab (TGA without antibody pre-incubation),Relipidated TF [3],48.3 min
same,EC50,Expi293-derived TF-His,450 pM
"29D (antibody, human IgG1, V domains shown, Human IgG1; also called antibody designated 29D) VH: QVQLVESGGGVVQPGRSLRLSCAASGFTFHSRGMHWVRQAPGKGLEWVAVITYDGINKYYADSVEGRFTISRDNSKNTLYLQMNSLRAEDTAVYYCARDGVYYGVYDYWGQGTLVTVSS VL: not shown",% FXa at 12.5 nM antibody,human Tissue Factor (TF) [4],85%
same,% FXa at 25 nM antibody,human Tissue Factor (TF) [4],77%
same,% FXa at 50 nM antibody,human Tissue Factor (TF) [4],75%
same,% FXa at 100 nM antibody,human Tissue Factor (TF) [4],75%
same,% FVIIa,human Tissue Factor (TF) [5],3%
same,% IL8 at 2.56 nM antibody,human Tissue Factor (TF) [6],27%
same,% IL8 at 6.4 nM antibody,human Tissue Factor (TF) [6],6%
same,% IL8 at 16 nM antibody,human Tissue Factor (TF) [6],2%
same,% IL8 at 40 nM antibody,human Tissue Factor (TF) [6],2%
same,% IL8 at 100 nM antibody,human Tissue Factor (TF) [6],1%
same,% FVIIa,human Tissue Factor (TF) [7],6%
same,% FVIIa,human Tissue Factor (TF) [8],4%
same,% 25A binding,human Tissue Factor (TF) [9],70%
same,% FVIIa,human Tissue Factor (TF) [10],3%
same,% GM-CSF at 2.56 nM antibody,human Tissue Factor (TF) [11],38%
same,% GM-CSF at 6.4 nM antibody,human Tissue Factor (TF) [11],15%
same,% GM-CSF at 16 nM antibody,human Tissue Factor (TF) [11],7%
same,% GM-CSF at 40 nM antibody,human Tissue Factor (TF) [11],6%
same,% GM-CSF at 100 nM antibody,human Tissue Factor (TF) [11],5%
same,% 43Ea binding,human Tissue Factor (TF) [12],64%
"29E (antibody, human IgG1, V domains shown, Human IgG1; also called antibody designated 29E) VH: QVQLVESGGGVVQPGRSLRLSCAASGFTFRSYGMHWVRQAPGKGLEWVAVITYDGINKYYADSVEGRFTISRDNSKNTLYLQMNSLRAEDTAVYYCARDGVYYGVYDYWGQGTLVTVSS VL: not shown [29E, listing 1 of 2 here]",EC50,E. coli-derived TF,680 pM
same,EC50,[1],530 pM
same,EC50,Expi293-derived TF-His,980 pM
"29E (antibody, human IgG1, V domains shown, Human IgG1; also called antibody designated 29E) VH: QVQLVESGGGVVQPGRSLRLSCAASGFTFRSYGMHWVRQAPGKGLEWVAVITYDGINKYYADSVEGRFTISRDNSKNTLYLQMNSLRAEDTAVYYCARDGVYYGVYDYWGQGTLVTVSS VL: not shown [29E, listing 2 of 2 here]",% FXa at 12.5 nM antibody,human Tissue Factor (TF) [4],81%
same,% FXa at 25 nM antibody,human Tissue Factor (TF) [4],68%
same,% FXa at 50 nM antibody,human Tissue Factor (TF) [4],63%
same,% FXa at 100 nM antibody,human Tissue Factor (TF) [4],66%
same,% FVIIa,human Tissue Factor (TF) [5],2%
same,% IL8 at 2.56 nM antibody,human Tissue Factor (TF) [6],33%
same,% IL8 at 6.4 nM antibody,human Tissue Factor (TF) [6],5%
same,% IL8 at 16 nM antibody,human Tissue Factor (TF) [6],2%
same,% IL8 at 40 nM antibody,human Tissue Factor (TF) [6],2%
same,% IL8 at 100 nM antibody,human Tissue Factor (TF) [6],2%
same,% FVIIa,human Tissue Factor (TF) [7],5%
same,% FVIIa,human Tissue Factor (TF) [8],3%
same,% 25A binding,human Tissue Factor (TF) [9],96%
same,% FVIIa,human Tissue Factor (TF) [10],2%
same,% GM-CSF at 2.56 nM antibody,human Tissue Factor (TF) [11],33%
same,% GM-CSF at 6.4 nM antibody,human Tissue Factor (TF) [11],9%
same,% GM-CSF at 16 nM antibody,human Tissue Factor (TF) [11],5%
same,% GM-CSF at 40 nM antibody,human Tissue Factor (TF) [11],6%
same,% GM-CSF at 100 nM antibody,human Tissue Factor (TF) [11],6%
same,% 43Ea binding,human Tissue Factor (TF) [12],85%
